This is an account of results in the Human Domainome abundance scans (Beltran et al. 2025).

± gives the uncertainty stated by the source.

B1: Transcription factor SOX-4, residues 60 to 127; numbered along this chain, Q06945 (parent)
chain: KRPMNAFMVWSQIERRKIMEQSPDMHNAEISKRLGKRWKLLKDSDKIPFIREAERLRLKHMADYPDYK

In the data set the parent is B1. The data set can be described thus: abundance fitness (aPCA) (normalised: wild type 0, dead -1); higher = more abundant; growth selection in yeast, the domain comes from the species named. To be noted: Homo sapiens.
As to P48D, the abundance fitness is -0.469 ± 0.077. The result for P48I reads -0.089 ± 0.08.

Turning to P23H, the abundance fitness is -0.548 ± 0.083.

As for P23A, the abundance fitness was -0.619 ± 0.074. The result for P23L reads -0.52 ± 0.055. Regarding E29K, the abundance fitness is -0.691 ± 0.24. As to E29T, the abundance fitness was -0.348 ± 0.12. For E29L, the abundance fitness was -0.518 ± 0.067.

On to E29R, for which the abundance fitness is -0.883 ± 0.1. On to E29D, for which the abundance fitness was -0.074 ± 0.062. The result for R15P reads -0.686 ± 0.14; that for R15S, -0.335 ± 0.039. On to R15C, for which the abundance fitness is -0.357 ± 0.049. R15L: the abundance fitness is -0.512 ± 0.056. Take R15T: the abundance fitness is -0.345 ± 0.078.

For R15H, the abundance fitness was -0.428 ± 0.14. The result for R15E reads -0.354 ± 0.079; that for P3W, -0.561 ± 0.077. The result for P3G reads -0.166 ± 0.036. The result for P3N reads -0.108 ± 0.049; that for P3Y, -0.182 ± 0.042. Turning to P3V, the abundance fitness is -0.136 ± 0.049.

On to P3K, for which the abundance fitness is -0.103 ± 0.07.

As for L41M, the abundance fitness is 0.071 ± 0.065. The result for L41W reads -0.946 ± 0.14; that for L41T, -0.788 ± 0.12; that for L41G, -0.941 ± 0.16. Take L41E: the abundance fitness is -0.849 ± 0.16. Take L41Q: the abundance fitness is -0.889 ± 0.19. In the case of M19C, the abundance fitness was -0.175 ± 0.045. As for M19K, the abundance fitness was 0.007 ± 0.048.

As for M19Q, the abundance fitness was -0.112 ± 0.11.

For the variant I13Q, the abundance fitness is -0.12 ± 0.095. As for I13H, the figure is 0.027 ± 0.23; as for I13L, -0.127 ± 0.062.

As to I13P, the abundance fitness was -0.484 ± 0.09. With I13N, the abundance fitness was -0.164 ± 0.082.

With E54N, the abundance fitness was -0.158 ± 0.041. The result for Y67M reads -0.069 ± 0.093. The result for Y67K reads 0.116 ± 0.11. With Y67P, the abundance fitness is -0.057 ± 0.088. The result for Y67I reads 0.11 ± 0.15; that for Y67H, -0.301 ± 0.38. Take Y67T: the abundance fitness is -0.14 ± 0.08. The result for Y67L reads -0.022 ± 0.046. Take M61G: the abundance fitness worked out at 0.022 ± 0.069. Regarding M61C, the abundance fitness is -0.071 ± 0.083. The result for M61S reads 0.001 ± 0.071; that for M61Y, -0.319 ± 0.25. As for M61T, the abundance fitness is -0.025 ± 0.093. As for M61A, the figure is -0.061 ± 0.067; as for M61W, -0.224 ± 0.083; as for R55E, -0.333 ± 0.076.

As to R55Y, the abundance fitness is -0.474 ± 0.1. As for R55M, the abundance fitness was -0.2 ± 0.091. As for R55Q, the figure is -0.188 ± 0.08; as for R55P, -0.5 ± 0.09. Regarding L34S, the abundance fitness is -0.621 ± 0.15.

For L34E, the abundance fitness is -0.639 ± 0.27. As for L34P, the figure is -0.955 ± 0.2; as for L34H, -0.881 ± 0.12; as for L34R, -0.981 ± 0.14. As for L34M, the abundance fitness is -0.798 ± 0.18. As to L34T, the abundance fitness is -0.957 ± 0.15. The result for K68E reads -0.155 ± 0.11. Turning to K68L, the abundance fitness was -0.297 ± 0.42. For K68P, the abundance fitness came to 0.128 ± 0.35. With K68S, the abundance fitness is -0.17 ± 0.096. The result for H26Y reads -0.652 ± 0.39. As for H26E, the figure is 0.024 ± 0.095; as for H26T, 0.154 ± 0.058; as for H26S, 0.291 ± 0.075. As for Q21M, the figure is -0.244 ± 0.1; as for Q21R, -0.267 ± 0.066. Q21H: the abundance fitness was -0.282 ± 0.11. The result for K1D reads 0.048 ± 0.12; that for K1T, -0.379 ± 0.082; that for K1Y, -0.116 ± 0.13.

In the case of K1Q, the abundance fitness was -0.788 ± 0.33. In the case of E20L, the abundance fitness was -0.284 ± 0.076. Consider E20N, for which the abundance fitness is -0.478 ± 0.2.

On to E20K, for which the abundance fitness is -0.439 ± 0.16. The result for K39E reads 0.057 ± 0.08; that for K39W, -0.758 ± 0.091. The result for K39P reads -0.783 ± 0.2. As for K39R, the figure is -0.187 ± 0.047. As to K39V, the abundance fitness is -0.306 ± 0.039.

V9W: the abundance fitness is -0.694 ± 0.13. The result for V9P reads -0.617 ± 0.21; that for V9T, -0.38 ± 0.2. Take V9N: the abundance fitness is -0.609 ± 0.21. The result for K32T reads -0.12 ± 0.053; that for K32M, 0.082 ± 0.057; that for K32C, -0.167 ± 0.046. K32R: the abundance fitness was -0.054 ± 0.036. As for K32D, the figure is -0.012 ± 0.044; as for D43K, -0.273 ± 0.06. The result for L58F reads -0.084 ± 0.039; that for L58S, -0.011 ± 0.034. As for L58V, the figure is -0.046 ± 0.039; as for L58A, 0.013 ± 0.05. Regarding L58M, the abundance fitness was -0.043 ± 0.065.

For the variant L58N, the abundance fitness is -0.028 ± 0.046. As for L58C, the figure is -0.247 ± 0.058; as for S11D, -0.758 ± 0.085. Turning to S11Q, the abundance fitness was -0.323 ± 0.092.

Take S11H: the abundance fitness was -0.703 ± 0.088.

With S31G, the abundance fitness was -0.189 ± 0.03. As for S31H, the figure is -0.19 ± 0.07; as for S31T, 0.047 ± 0.052. The result for K59N reads -0.118 ± 0.061; that for K59M, -0.048 ± 0.055. The result for K59V reads -0.086 ± 0.038; that for K59D, -0.13 ± 0.054. As to K59T, the abundance fitness was -0.162 ± 0.058.

D24N: the abundance fitness is -0.123 ± 0.063. As to D24I, the abundance fitness was -0.632 ± 0.1. Turning to D24T, the abundance fitness was -0.206 ± 0.068.

Regarding D24L, the abundance fitness is -0.251 ± 0.039. On to D24P, for which the abundance fitness was -0.564 ± 0.11. The result for D24K reads -0.141 ± 0.064; that for N5D, -0.032 ± 0.15. Consider N5G, for which the abundance fitness is -0.278 ± 0.081. As for N5W, the figure is -0.439 ± 0.16; as for R33G, -0.283 ± 0.064; as for R33P, -0.922 ± 0.14. The result for R33L reads 0.192 ± 0.059; that for R33I, -0.051 ± 0.2; that for E52M, -0.394 ± 0.071. The result for E52H reads -0.726 ± 0.3; that for H60W, -0.161 ± 0.074; that for H60L, -0.186 ± 0.052.

In the case of H60M, the abundance fitness was -0.092 ± 0.073.

For H60R, the abundance fitness is -0.19 ± 0.047. As for H60Q, the figure is -0.066 ± 0.072; as for Q12R, -0.267 ± 0.042; as for Q12C, -0.07 ± 0.06. The result for Q12S reads -0.134 ± 0.06; that for Q12G, -0.265 ± 0.05. The result for Q12Y reads -0.343 ± 0.17; that for D63H, -0.168 ± 0.057; that for D63P, -0.117 ± 0.074. As to I30W, the abundance fitness was -0.875 ± 0.089. The result for I30A reads -0.605 ± 0.1; that for I30T, -0.661 ± 0.12.

As to I30G, the abundance fitness is -0.769 ± 0.055. As for I30D, the figure is -0.871 ± 0.11; as for I30Y, -0.8 ± 0.11; as for I30F, -0.912 ± 0.11. The result for I30S reads -0.858 ± 0.071; that for W38R, -1.16 ± 0.12; that for W38M, -0.985 ± 0.11. The result for W38F reads -1.08 ± 0.16; that for W38L, -0.989 ± 0.096. As for W38D, the abundance fitness is -0.67 ± 0.091. Take W38E: the abundance fitness is -0.799 ± 0.1.

For the variant R2W, the abundance fitness is -0.164 ± 0.095. As for R2L, the figure is -0.275 ± 0.067.

For R2Y, the abundance fitness is -0.374 ± 0.41. The result for R2V reads -0.08 ± 0.07; that for R2E, -0.362 ± 0.12; that for R2Q, -0.039 ± 0.088. As for K46L, the figure is -0.652 ± 0.063; as for K46W, -0.95 ± 0.11.

For the variant K46C, the abundance fitness is -0.814 ± 0.087. The result for K46V reads -0.798 ± 0.061. The result for K46S reads -0.901 ± 0.066.
